Consider six sequences from the Immune Epitope Database (IEDB).

In one assay the target is HLA-A*02:01. As to the kind of experiment: IEDB peptide-MHC binding, purified MHC/competitive/fluorescence; filed as Kd, often an IC50 or EC50 that approximates it; ≥ and ≤ were set here for values at or beyond the usual limits of such assays.
Another assay has as its target HLA-C*04:01. Described as above. Particulars: source organism: human gammaherpesvirus 4.
In the next assay the target is HLA-B*45:06. The description is as above.
The target in another assay is HLA-B*83:01. Described as above.
In assay [1] the target is HLA-A*69:01. Described as above.
The target of a further assay is HLA-B*15:42. The description is as above.
Another assay addresses HLA-C*05:01. Briefly: IEDB peptide-MHC binding, purified MHC/direct/fluorescence; filed as Kd, often an IC50 or EC50 that approximates it; ≥ and ≤ were set here for values at or beyond the usual limits of such assays. The following applies: source organism: human gammaherpesvirus 4.
For a further assay, the target named is HLA-C*15:02. The description is as above.
The target in a further assay is HLA-C*14:02. As to the kind of experiment: IEDB peptide-MHC binding, purified MHC/competitive/fluorescence; filed as Kd, often an IC50 or EC50 that approximates it; ≥ and ≤ were set here for values at or beyond the usual limits of such assays. The following applies: source organism: Yellow fever virus.
Assay [2] addresses HLA-A*11:01. The assay is described as above. Particulars: source organism: Human immunodeficiency virus 1.
The next assay addresses HLA-A*30:01. The assay is described as above. The following applies: source organism: Human immunodeficiency virus 1.
In assay [3] the target is HLA-A*01:01. The assay is described as above. Particulars: source organism: Human immunodeficiency virus 1.
For assay [4], the target named is HLA-B*18:01. The description is as above. Particulars: source organism: Human immunodeficiency virus 1.
In the next assay the target is HLA-A*02:03. Described as above. The following applies: source organism: Human immunodeficiency virus 1.
Assay [5] deals with HLA-A*26:02. The assay is described as above. The following applies: source organism: Human immunodeficiency virus 1.
For another assay, the target named is HLA-B*15:17. Described as above.
Another assay concerns the target HLA-A*02:06. The description is as above. Particulars: source organism: Human immunodeficiency virus 1.
Another assay deals with HLA-B*57:01. Described as above. Particulars: source organism: Giardia lamblia ATCC 50803.
Another assay concerns the target HLA-A*68:02. The assay is described as above. Particulars: source organism: Giardia lamblia ATCC 50803.
The target of another assay is HLA-B*15:01. The description is as above. Particulars: source organism: Giardia lamblia ATCC 50803.
The target of a further assay is HLA-A*31:01. Briefly: IEDB peptide-MHC binding, purified MHC/direct/fluorescence; filed as Kd, often an IC50 or EC50 that approximates it; ≥ and ≤ were set here for values at or beyond the usual limits of such assays. The following applies: source organism: Giardia intestinalis.
A further assay deals with HLA-A*26:03. The assay is described as above. The following applies: source organism: Giardia lamblia ATCC 50803.
Another assay deals with HLA-B*58:01. Described as above. The following applies: source organism: Giardia intestinalis.
The target of assay [6] is HLA-A*11:01. The assay is described as above. Particulars: source organism: Giardia intestinalis.
The next assay addresses HLA-B*40:01. Described as above. The following applies: source organism: Giardia intestinalis.
The target in the next assay is HLA-B*08:02. Described as above. Particulars: source organism: Giardia lamblia ATCC 50803.
Another assay has as its target HLA-B*27:05. The assay is described as above. Particulars: source organism: Giardia intestinalis.
The target of another assay is HLA-B*08:03. The description is as above. Particulars: source organism: Giardia lamblia ATCC 50803.
A further assay deals with HLA-A*26:01. The assay is described as above.
The target of another assay is HLA-B*08:01. The assay is described as above. Particulars: source organism: Giardia lamblia ATCC 50803.
The target in the next assay is HLA-B*46:01. The description is as above. The following applies: source organism: Giardia intestinalis.
For assay [7], the target named is HLA-A*01:01. The description is as above. The following applies: source organism: Giardia intestinalis.
The target of assay [8] is HLA-B*18:01. Described as above. The following applies: source organism: Giardia intestinalis.
A further assay deals with HLA-B*07:02. Described as above. Particulars: source organism: Giardia intestinalis.
The target in assay [9] is HLA-A*69:01. Described as above. The following applies: source organism: Giardia intestinalis.
A further assay has as its target HLA-B*48:01. The description is as above. The following applies: source organism: Giardia intestinalis.
For the next assay, the target named is HLA-A*03:01. Described as above. The following applies: source organism: Giardia intestinalis.
Assay [10] deals with HLA-A*26:02. Described as above. The following applies: source organism: West Nile virus strain PTRoxo.
Setting [11] is: source organism: human gammaherpesvirus 4.
Where [12] appears, read: source organism: Camelpox virus CMS.
Setting [13] is: source organism: Yellow fever virus.
Where [14] appears, read: source organism: Human immunodeficiency virus 1.
Where [15] appears, read: source organism: Giardia lamblia ATCC 50803.

Turning to FTASVSTVV, the Kd was 0.0027 µM with HLA-A*02:01 (setting [11]); at least 5 µM with HLA-C*04:01; at least 5 µM with HLA-B*45:06 (setting [11]); at least 5 µM in the assay with HLA-B*83:01 (setting [11]); at most 0.0001 µM with HLA-A*69:01 [1] (setting [11]); at least 5 µM in the assay with HLA-B*15:42 (setting [11]). The sequence also registered a Kd with HLA-C*05:01 of 3.95 µM.
In the case of IVIEAIHTV, the results for the Kd with HLA-A*02:01 (setting [12]) and with HLA-C*15:02 (setting [12]) were 0.0021 µM and 0.341 µM, respectively.
In the case of MWHVTRGAF, the Kd is 0.0028 µM in the assay with HLA-C*14:02; at least 5 µM in the assay with HLA-B*45:06 (setting [13]); at least 5 µM with HLA-B*83:01 (setting [13]); at least 5 µM in the assay with HLA-B*15:42 (setting [13]); at least 20 µM with HLA-C*15:02 (setting [13]).
As to RSLYNTVATLY, the Kd with HLA-A*11:01 [2] was at least 20 µM; in the assay with HLA-A*30:01 it was at least 20 µM; in the assay with HLA-A*01:01 [3] it was at least 20 µM; with HLA-B*18:01 [4] it was 0.0763 µM; with HLA-A*02:03 it was at least 20 µM; with HLA-A*26:02 [5] it was at least 20 µM. The Kd with HLA-A*69:01 [1] (setting [14]) was 16.6 µM; in the assay with HLA-B*15:17 (setting [14]) it was 0.0007 µM; with HLA-A*02:06, at least 20 µM.
Turning to RTMPLSRFT, the Kd in the assay with HLA-B*57:01 is 0.375 µM; with HLA-A*02:01 (setting [15]) it was at least 20 µM; in the assay with HLA-A*68:02, 4.56 µM; with HLA-B*15:01, 14 µM; with HLA-B*15:17 (setting [15]), at least 20 µM; with HLA-A*31:01, 12.5 µM. Further, the Kd with HLA-A*26:03 was at least 20 µM; in the assay with HLA-B*58:01, at least 20 µM; with HLA-A*11:01 [6], 2.68 µM; in the assay with HLA-B*40:01, at least 20 µM; with HLA-B*08:02, at least 20 µM; with HLA-B*27:05, at least 20 µM. Further, the Kd with HLA-B*08:03, in the assay with HLA-A*26:01 (setting [15]), with HLA-B*08:01, with HLA-B*46:01, in the assay with HLA-A*01:01 [7] and with HLA-B*18:01 [8] was at least 20 µM in each case. Besides, the Kd in the assay with HLA-B*07:02, in the assay with HLA-A*69:01 [9], in the assay with HLA-B*48:01 and with HLA-A*03:01 was at least 20 µM throughout.
STKAACPTM: the Kd stood at 15.7 µM with HLA-A*26:01 (source organism: West Nile virus) and 1.04 µM in the assay with HLA-A*26:02 [10].

Broadly, the Kd is the free concentration of one partner at which half of the binding sites on the other are occupied at equilibrium, for simple one-to-one binding.
